Experimental findings from patent US20200087364A1 (IMMATICS BIOTECHNOLOGIES, published 2020) are described below.

The assay concerns the target T1, HLA-A*01:01 (human).
T1 construct: MHC class I monomer first loaded with a UV-sensitive peptide (not identified) that is cleaved by UV irradiation and exchanged for the tested peptide; captured on streptavidin plates, detected with anti-β2m; also called peptide-receptive MHC molecules
As to the kind of experiment: UV-ligand exchange, anti-b2m ELISA. The source says:
Candidate peptides for T cell based therapies according to the present invention were further tested for their MHC binding capacity (affinity). The individual peptide-MHC complexes were produced by UV-ligand exchange, where a UV-sensitive peptide is cleaved upon UV-irradiation and exchanged with the peptide of interest as analyzed. Only peptide candidates that can effectively bind and stabilize the peptide-receptive MHC molecules prevent dissociation of the MHC complexes. To determine the yield of the exchange reaction, an ELISA was performed based on the detection of the light chain (β2m) of stabilized MHC complexes. The assay was performed as generally described in Rodenko et al. (Rodenko et al., 2006)
96 well MAXISorp plates (NUNC) were coated over night with 2 ug/ml streptavidin in PBS at room temperature, washed 4× and blocked for 1 h at 37° C. in 2% BSA containing blocking buffer. Refolded HLA-A*02:01/MLA-001 monomers served as standards, covering the range of 15-500 ng/ml. Peptide-MHC monomers of the UV-exchange reaction were diluted 100-fold in blocking buffer. Samples were incubated for 1 h at 37° C., washed four times, incubated with 2 ug/ml HRP conjugated anti-β2m for 1 h at 37° C., washed again and detected with TMB solution that is stopped with […]. Absorption was measured at 450 nm.
In general terms: In an ELISA, binding on a coated surface is turned into a signal by an enzyme label.

Molecule GIEMTYETY gave a peptide exchange yield of 20 to 50%. NSMLDPLVY displayed a peptide exchange yield of more than 75%.

Turning to NAVDVVPSSF, the peptide exchange yield was in the range of 10 to 20%. For KSFDDIAKY, the peptide exchange yield was 20 to 50%. Consider ESAPKEVSRY, for which the peptide exchange yield lay within 20 to 50%.

With GSPDAVVSY, the peptide exchange yield lay in the range of 10 to 20%. In the case of VTDIDELGK, the peptide exchange yield lay in the range of 50 to 75%.

The molecule GYVCNACGLY registered a peptide exchange yield of 20 to 50%. As to KTELETALYY, the peptide exchange yield was 50 to 75%.

EVLDSLLAQY showed a peptide exchange yield of 20 to 50%. As for ETDWGLLKGHTY, the figure is more than 75%; as for VLDSLLAQY, more than 75%; as for GTNLPTLLW, 10 to 20%. LMDEGAVLTL: the peptide exchange yield is 20 to 50%. In turn, RTDEGDNRVW showed a peptide exchange yield of 20 to 50%. Take LSDNAANRY: the peptide exchange yield lay in the range of 50 to 75%. As for GVGFTELEY, the figure is 50 to 75%. Under FTAQLQLY stands 50 to 75%; under SMIRVGTNY, 20 to 50%. Regarding RPSSVLTIY, the peptide exchange yield fell in the range of 50 to 75%. As for FLFNDALLY, the figure is more than 75%; as for DTTSHTYLQY, 20 to 50%; as for ARLEGEIATY, 20 to 50%. For KSEMNVNMKY, the peptide exchange yield is more than 75%. Molecule APDEVVALL registered a peptide exchange yield of 20 to 50%. The molecule YTDLTTIQV registered a peptide exchange yield of more than 75%. Under QITPKHNGLY stands 20 to 50%; under HAFESNNFIY, 20 to 50%; under RYLNIVHATQLY, 20 to 50%. Regarding AMMQEAQLAY, the peptide exchange yield lay within 50 to 75%. The molecule DTDPLKAAGL registered a peptide exchange yield of 10 to 20%. The molecule VMDTLGLFY displayed a peptide exchange yield of more than 75%. Under YLESHGLAY stands more than 75%; under SIEIDHTQY, 20 to 50%. The molecule DTLEAATSLY returned a peptide exchange yield of 20 to 50%. In the case of DVERIKDTY, the peptide exchange yield fell in the range of 20 to 50%.

For the molecule LLPLLVMAY, the peptide exchange yield fell in the range of 20 to 50%.

On to WELDSLEY, for which the peptide exchange yield lay in the range of 20 to 50%. For NLDHYTNAY, the peptide exchange yield fell in the range of 50 to 75%. Molecule RINSATGQY returned a peptide exchange yield of 20 to 50%. Turning to MTDVFIDY, the peptide exchange yield was in the range of 50 to 75%. Take STDPNIVRK: the peptide exchange yield lay in the range of 50 to 75%. As for AQEAAVFLTLY, the figure is 50 to 75%; as for LTSEDTGAY, 50 to 75%; as for SSERGSPIEKY, 50 to 75%.

For the molecule SLMVASLTY, the peptide exchange yield was in the range of 20 to 50%.

Molecule TDVERIKDTY came in with a peptide exchange yield of 50 to 75%. As for CVIETFHKY, the figure is 50 to 75%. As to VTKYIAGPY, the peptide exchange yield fell in the range of 20 to 50%.
